“And” between values parts separate entries of the source, which are not always exact repeats. Equal entries are not always repeated.
Target: the molecule itself
Test: AUC

B1: human BOLA3 (natural protein, UniProt Q53S33 25-107, looked up)
chain: MFATQTEGELRVTQILKEKFPRATAIKVTDISGGCGAMYEIKIESEEFKEKRTVQQHQMVNQALKEEIKEMHGLRIFTSVPKR
stoichiometry N: 2 and 4
